Source: paper PMC11635053, “Development of a homotrimeric PSMA radioligand based on the NOTI chelating platform” (EJNMMI Radiopharmacy and Chemistry, 2024)

Columns and labels:
[1] = system: patient with metastatic prostate cancer; test: Clinical PET/CT imaging; conditions: human, in vivo
Method: PET/CT was performed approximately 1, 2, and 3 h after intravenous injection of 107 MBq of [^68Ga]Ga-9 and 1 h after injection of 113 MBq [^68Ga]Ga-PSMA-11 in a patient with metastatic prostate cancer. Whole body imaging extending from vertex to mid-femur was performed in 3D-ToF mode on a Biograph mCT 40 scanner (Siemens Medical Solutions, Knoxville, TN, USA) with an extended field of view of 21.4 cm. PET acquisition time was 3 min bed position^−1. Low-dose CT acquisition was performed for attenuation correction and anatomical localization using an X-ray tube voltage of 120 kV and a modulation of the tube current (maximal tube current: 30 mA; CARE Dose 4D software Siemens Healthineers, Erlangen, Germany) followed by reconstruction with a soft tissue reconstruction kernel (Bf37) to a slice thickness of 5 mm (increment 2–4 mm). PET emission data were additionally corrected for decay, randoms and scatter and reconstructed applying an iterative 3D ordered subset expectation maximization algorithm (3 iterations; 21 subsets) withGaussian filtering to transaxial resolution of 5 mm at full width at half maximum. The matrix size was 200 × 200 mm and the reconstructed pixel size was 5.0 mm.

PSMA = target: T1, PSMA (Homo sapiens, UniProt Q04609); test: Competitive binding assay in LNCaP cells with [177Lu]Lu-PSMA-617 as radioligand; conditions: LNCaP cells, radioligand [177Lu]Lu-PSMA-617, 2 h at r.t.; read-out: IC50 (half maximum competitive inhibitory concentration)
T1 construct: host or cells: LNCaP
T1 sequence (Q04609 whole entry): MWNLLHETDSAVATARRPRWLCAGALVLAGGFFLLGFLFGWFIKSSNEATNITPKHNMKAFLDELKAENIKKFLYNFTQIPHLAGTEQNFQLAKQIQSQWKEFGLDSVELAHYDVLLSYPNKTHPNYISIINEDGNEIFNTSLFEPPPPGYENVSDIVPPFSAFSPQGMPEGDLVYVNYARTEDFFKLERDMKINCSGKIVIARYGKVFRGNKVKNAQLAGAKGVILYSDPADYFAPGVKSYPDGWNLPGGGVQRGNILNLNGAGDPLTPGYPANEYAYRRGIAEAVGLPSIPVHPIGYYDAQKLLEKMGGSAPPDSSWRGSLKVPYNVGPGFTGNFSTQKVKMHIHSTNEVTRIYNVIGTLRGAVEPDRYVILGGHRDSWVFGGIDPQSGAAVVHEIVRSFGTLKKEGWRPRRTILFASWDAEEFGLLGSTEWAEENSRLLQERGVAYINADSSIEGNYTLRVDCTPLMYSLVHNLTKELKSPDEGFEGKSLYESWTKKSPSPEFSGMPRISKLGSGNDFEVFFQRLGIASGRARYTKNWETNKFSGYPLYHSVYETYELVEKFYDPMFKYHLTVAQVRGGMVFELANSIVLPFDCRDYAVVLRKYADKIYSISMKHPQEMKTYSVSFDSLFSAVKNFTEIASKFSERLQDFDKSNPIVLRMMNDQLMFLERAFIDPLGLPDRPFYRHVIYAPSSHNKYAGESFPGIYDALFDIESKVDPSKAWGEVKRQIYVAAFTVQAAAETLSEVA
Method: In order to establish a structure–activity relationship, the binding affinity of the metal-free and ^natGa-complexes of the conjugates 7, 8, and 9 were determined in the PSMA-positive human prostate cancer cell line LNCaP by a competitive binding assay as previously reported using [^177Lu]Lu-PSMA-617 as the radioligand (Stemler et al. [2021]). The conjugate Glu-CO-Lys-Ahx-HBED-CC (PSMA-11) was included as the control.
The competitive binding assay was carried out using a MultiScreen®HTS Vacuum Manifold system (Merck, Germany) with 96-well filter plates. Serial dilutions of the metal-free conjugates and corresponding ^natGa complexes were prepared to obtain 7 final concentrations ranging from 0 to 1000 nM for each compound. PSMA-11 was also tested as control. Experiments were performed twice in triplicate for each compound. Freshly prepared ^177Lu-labeled PSMA-617 was used as the radioligand. A volume of 1 μL of [^177Lu]Lu-PSMA-617 stock solution (2.83 μM) was added into each tube of the dilution series (radioligand concentration 3.14 nM). For the experiment, 10^5 LNCaP cells were seeded into each well. The final volume of each well was 150 μL (100 μL cells in medium + 50 μL inhibitor in PBS). The experiment was incubated for 2 h at r.t. in a plate shaker. Then, the supernatants were removed by vacuum. Wells were furthermore washed out with ice-cold PBS (3 × 200 μL, pH 7.4). The filters were punched into tubes for the subsequent quantification of the activity in a Gamma-counter. A nonlinear regression algorithm was applied by the software GraphPad Prism to determine the specific inhibitory concentrations of 50% for the tested radiotracers.

[2] = system: PSMA-positive LNCaP cells; test: Cell uptake / internalization of 68Ga-labeled conjugates in LNCaP cells; assay type: cell-based, human; conditions: 1 h incubation, 2.5 pmol per 10^6 cells, 68Ga-labeled
Method: Next, the cellular uptake of the ^68Ga-labeled conjugates 7, 8, and 9 as well as [^68Ga]Ga-PSMA-11 was determined in PSMA-positive LNCaP cells.
LNCaP cells were seeded (10^6 cells well^−1) in poly-L-lysine coated 6-well plates 24 h before the experiment. Experiments were performed twice in triplicate for each compound. The radiolabeling solutions of [^68Ga]Ga-7, [^68Ga]Ga-8, [^68Ga]Ga-9, and [^68Ga]Ga-PSMA-11 were first diluted with PBS (pH 7.4) to a concentration of […]. 100 µL of this dilution were added to 3900 µL PBS (pH 7.4) to obtain final stock solutions of each radiolabeled compound (0.025 nmol mL^−1).
On the day of the experiment, the medium was replaced by fresh preheated medium (1.4 mL w/o blocking, 1.3 mL with blocking) and the cells incubated for 1 h at 37 °C. Next, the blocking solution was added (100 μL, 2500 pmol) to the corresponding wells. Finally, the corresponding radiolabeled conjugate (100 μL, 2.5 pmol) was added to a final assay volume of 1.5 mL well^−1. After 1 h incubation time, the supernatants were removed and the cells were washed carefully with ice-cold PBS buffer (2 × 1 mL, pH 7.4) followed by a subsequent glycine–HCl washing step (50 mM, pH 2.8, 2 × 1 mL well^−1). Cells were incubated with the glycine–HCl solution for 4 min at r.t. Next, corresponding fractions were transferred into counting tubes. Subsequently, the cells were lysed by adding NaOH (2 × 1 mL well^−1, 0.1 M) and the lysed fractions were also transferred into counting tubes. As standards, 100 µL of each radiolabeled conjugate stock solution (0.025 nmol mL^−1, 2.5 pmol) were pipetted into counting tubes containing 2 mL PBS buffer. The activity of the standards, the surface bound fractions and the internalized fractions were measured in a Gamma counter. Means were calculated and subtracted by the background. The percentages of unspecific and specific cell-surface bound and internalized activity were calculated from the standards.

[3] = assay type: in vitro ADME; conditions: 2 h
Method: 100 μL of the radiolabeling solution of each ^68Ga-labeled tracer were added to preheated (37 °C) 1000 μL human serum (male, AB, Sigma Aldrich, USA) in triplicates and incubated at 37 °C. At 1 and 2 h, 100 µL aliquots were taken, mixed with 100 µL ice-cold acetonitrile, and centrifuged at 4 G for 5 min at 4 °C. The corresponding filtrates were kept on ice until HPLC analysis. The supernatants were then analyzed by radio-RP-HPLC and fractions of intact compounds were calculated from the HPLC chromatograms. (gradient 4,Gamma-ray detector: 100–900 keV, injection volume: 20 μl). tR ([^68Ga]Ga-7) = 12.1 min, tR ([^68Ga]Ga-8) = 14.4 min, tR ([^68Ga]Ga-9) = 25.2 min.

human serum proteins = test: in vitro; assay type: in vitro ADME; conditions: male, Protein binding
Method: To determine the protein bound fraction of each trimeric radiotracer, 100 μL of the radiolabeling solution of the corresponding ^68Ga-labeled conjugate were added to preheated (37 °C) 1000 μL human serum (male, AB, Sigma Aldrich, USA) in triplicates. Samples were incubated for 1 h at 37 °C. After cooling to r.t., the samples were centrifuged utilizing molecular cutoff (30 kDa) centrifuge tubes at 4 G for 5 min at 4 °C. The filters were additionally rinsed with PBS buffer (2 × 100 μL). The background subtracted activity in the filters and the filtrates were determined in a Gamma counter and the percentage of protein bound fractions were calculated.

- IC50 (PSMA): 4.8 nM
Structure (SMILES): O=C(O)CC[C@H](NC(=O)N[C@@H](CCCCNC(=O)[C@H](Cc1ccc2ccccc2c1)NC(=O)[C@H]1CC[C@H](CNC(=O)CCCCn2ccnc2CN2CCN(Cc3nccn3CCCCC(=O)NC[C@H]3CC[C@H](C(=O)N[C@@H](Cc4ccc5ccccc5c4)C(=O)NCCCC[C@H](NC(=O)N[C@@H](CCC(=O)O)C(=O)O)C(=O)O)CC3)CCN(Cc3nccn3CCCCC(=O)NC[C@H]3CC[C@H](C(=O)N[C@@H](Cc4ccc5ccccc5c4)C(=O)NCCCC[C@H](NC(=O)N[C@@H](CCC(=O)O)C(=O)O)C(=O)O)CC3)CC2)CC1)C(=O)O)C(=O)O [^nat/68Ga-9, metal not drawn]
- SUVpeak in the parotid gland [1]: 26.7
- SUVpeak in the submandibular gland [1]: 23.5
- SUVpeak kidneys [1]: 33.1
- SUVpeak, first target lesion [1]: 23.7
- SUVpeak, second target lesion [1]: 12.8
- SUVpeak, third target lesion [1]: 10.3
- Cell-surface bound fraction [2]: 1.5 ± 0.5%
- Metabolic stability in human serum [3]: no significant degradation
- fraction unbound at 1 h (human serum proteins): < 0.05
